Experimental data from patent publication US20260217813A1 (published 2026).
Changes are numbered by the printed parent chain.

T1: IL-12 (Human IL12 (His Tag)), Sino Biological Cat. No. CT-050-H08H-20 (human, UniProt P29460 23-328; P29459 23-219)
T1 construct: Bought His-tagged p35/p40 heterodimer
T1 sequence (looked up) 1: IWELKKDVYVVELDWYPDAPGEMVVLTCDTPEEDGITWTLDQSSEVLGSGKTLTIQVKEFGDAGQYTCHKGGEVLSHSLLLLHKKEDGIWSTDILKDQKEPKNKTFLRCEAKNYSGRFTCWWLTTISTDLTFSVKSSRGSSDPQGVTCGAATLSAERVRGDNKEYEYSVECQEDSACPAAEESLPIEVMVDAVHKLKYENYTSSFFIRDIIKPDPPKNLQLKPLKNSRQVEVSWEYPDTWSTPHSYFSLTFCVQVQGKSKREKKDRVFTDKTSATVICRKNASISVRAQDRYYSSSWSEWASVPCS
T1 sequence (looked up) 2: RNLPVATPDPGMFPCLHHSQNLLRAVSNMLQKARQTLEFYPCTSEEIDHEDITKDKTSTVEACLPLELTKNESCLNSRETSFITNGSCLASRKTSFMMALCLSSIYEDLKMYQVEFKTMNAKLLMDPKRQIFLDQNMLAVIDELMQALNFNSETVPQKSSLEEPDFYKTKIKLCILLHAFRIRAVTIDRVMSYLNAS

B1: H5L10 (antibody, human IgG1, kappa, V domains shown)
VH: EVQLVQSGAEVKKPGESLKISCQSSGYSFTTYWIGWVRQMPGQGLEWIGIMSPVDSDIRYNPMFRGQVTMSVDKSSSTAYLQWSSLKASDTAMYYCARRRPGQGYFDFWGQGTMVTVSS
VL: EIVLTQSPATLSASPGERATISCRASQSVGSWLAWYQQKPGQAPRSLIYAASNLQSGIPARFSGSGSGTDFTLTISSLEPEDFAVYYCQQYNIYPYTFGQGTRLEIKR
notes: IgG1/kappa
B2: H5L14 (antibody, human IgG1, kappa, V domains shown)
VH: B1 VH
VL: B1 VL with G30S, Y96F
notes: IgG1/kappa
B3: H5L12 (antibody, human IgG1, kappa, V domains shown)
VH: B1 VH
VL: B1 VL with G30S, L54R
notes: IgG1/kappa
B4: H5L11 (antibody, human IgG1, kappa, V domains shown)
VH: B1 VH
VL: B1 VL with G30S, A50S
notes: IgG1/kappa
B5: ustekinumab (trade name Stelara) (antibody, V domains shown)
VH: EVQLVQSGAEVKKPGESLKISCKGSGYSFTTYWLGWVRQMPGKGLDWIGIMSPVDSDIRYSPSFQGQVTMSVDKSITTAYLQWNSLKASDTAMYYCARRRPGQGYFDFWGQGTLVTVSS
VL: DIQMTQSPSSLSASVGDRVTITCRASQGISSWLAWYQQKPEKAPKSLIYAASSLQSGVPSRFSGSGSGTDFTLTISSLQPEDFATYYCQQYNIYPYTFGQGTKLEIK

Molecular target: T1, IL-12 (Human IL12 (His Tag)), Sino …
Experiment: FACS competition, IL-12-His 20 nM on 293T-IL-12RB1&IL-23R cells
Procedure: 200 μL of 1% PBSA was added into each sample, and the mixture was centrifuged at 700×g for 5 min to discard the supernatant. According to experiment design, correspondingly diluted antibody (highest final concentration of 30 μg/mL, 3-fold dilution, 8 concentrations in total) and human IL-12 (Sino Biological, Cat. No.: CT-050-H08H-20) (final concentration of 20 nM) were mixed at a ratio of 1:1, and a blank control was set. The mixture of antibody and human IL12 was incubated on ice for 30 min and then added to the cell precipitate at 100 μL/sample. The resulting mixture was well mixed and incubated on ice for 60 min. 200 μL of 1% PBSA was added, and the mixture was centrifuged at 700×g for 5 min to discard the supernatant, and then washed twice. Alexa Fluor® 488 anti-His tag antibody (Biolegend, Cat. No.: 652509) was diluted at a ratio of 1:400 and added to each tube at 100 μL. The mixture was well mixed and incubated on ice for 40 min in the absence of light. 200 μL of 1% PBSA was added, and the mixture was centrifuged at 700×g for 5 min to discard the supernatant, and then washed twice. 1% PBSA was added at 200 μL/tube, and the cells were resuspended and transferred to a flow cytometry tube for testing.

EC50	Binder
0.331 µg/mL	B1
0.532 µg/mL	B2
0.317 µg/mL	B3
0.414 µg/mL	B4
0.377 µg/mL	B5

Molecular target: T1, IL-12 (Human IL12 (His Tag)), Sino …
Experiment: FACS competition, IL12-His (40 nM mixed 1:1) on 293T-IL-12RB1&IL-23R cells
Procedure: 200 μL of 1% PBSA was added into each sample, and the mixture was centrifuged at 1200 rpm for 5 min to discard the supernatant. According to experiment design, correspondingly diluted antibody (highest final concentration of 60 μg/mL, 3-fold dilution, 8 concentrations in total) and IL12-His (Sino Biological, Cat. No.: CT-050-H08H-20) (40 nM) were mixed at a ratio of 1:1, and a blank control was set. The mixture of antibody and IL12 was incubated on ice for 30 min and then added to the cell precipitate at 100 μL/sample. The resulting mixture was well mixed and incubated on ice for 60 min. 200 μL of 1% PBSA was added, and the mixture was centrifuged at 1200 rpm for 5 min to discard the supernatant, and then washed twice. THETM His tag antibody (FITC) (Genscript, Cat. No.: A01620) was diluted at a ratio of 1:500 and added to each tube at 100 μL. The mixture was well mixed and incubated on ice for 40 min in the absence of light. 200 μL of 1% PBSA was added, and the mixture was centrifuged at 1200 rpm for 5 min to discard the supernatant, and then washed twice. 1% PBSA was added at 200 μL/tube, and the cells were resuspended and transferred to a flow cytometry tube for testing.

EC50	Binder
1.58 µg/mL	B5
